Assay results as given in paper doi:10.1101/2020.06.27.175497, “Novel mode of filament formation in UPA-promoted CARD8 and NLRP1 Inflammasomes” (bioRxiv, 2020).

B1: ASC^CARD (106-195) W169G (domain or fragment, UniProt Q9ULZ3 106-195, looked up)
chain: SAAKPGLHFIDQHRAALIARVTNVEWLLDALYGKVLTDEQYQAVRAEPTNPSKMRKLFSFTPAGNWTCKDLLLQALRESQSYLVEDLERS
notes: ASC, CARD, residues 106-195; Stood in the experiment on one chain with caspase-1^CARD G20K through a 5 x GSS linker (fusion m9); also called type IIa W169G mutant of ASC^CARD; source: E. coli BL21 (DE3), purified (Ni-NTA, TEV cleavage, amylose flow-through, Superdex 200), as part of the fusion m9
B2: CARD8-CT (UPA-CARD fragment of CARD8, S297-L537) (domain or fragment, human, UniProt Q9Y2G2-5 297-537, looked up)
chain: SLMGILLRIASGTRLSIPITSNTLIYYHPHPEDIKFHLYLVPSDALLTKAIDDEEDRFHGVRLQTSPPMEPLNFGSSYIVSNSANLKVMPKELKLSYRSPGEIQHFSKFYAGQMKEPIQLEITEKRHGTLVWDTEVKPVDLQLVAASAPPPFSGAAFVKENHRQLQARMGDLKGVLDDLQDNEVLTENEKELVEQEKTRQSKNEALLSMVEKKGDLALDVLFRSISERDPYLVSYLRQQNL
notes: CARD8, human, UPA-CARD fragment S297-L537 of the T60 isoform; numbers count on: the T60 isoform Q9Y2G2-5; Forms helical filaments; the purified filaments still held some uncleaved His-MBP-tagged subunits; Only the CARD is resolved in the map; also called CARD8^UPA-CARD; source: E. coli BL21 (DE3), purified (amylose resin, MBP-3C protease cleavage, Superose 6 void fraction); not shown: His, …
B3: His-MBP-3C-UPA-CARD of CARD8 (uncleaved MBP fusion of CARD8-CT) (domain or fragment, human, UniProt Q9Y2G2-5 297-537, looked up)
chain: B2 chain
notes: CARD8, human, UPA-CARD fragment S297-L537 of the T60 isoform; numbers count on: the T60 isoform Q9Y2G2-5; HRV 3C protease linker between MBP and UPA-CARD; modified pDB-His-MBP vector; also called MBP-fusion protein; MBP-CT fusion protein; source: E. coli BL21 (DE3), purified (amylose resin); not shown: His, N-terminal, kept; MBP, N-terminal, kept
B4: NLRP1^CARD (D1374-S1473, with G1463C) (domain or fragment, human, UniProt Q9C000-1 1374-1473, looked up)
chain: DAPQLLHFVDQYREQLIARVTSVEVVLDKLHGQVLSQEQYERVLAENTRPSQMRKLFSLSQSWDRKCKDGLYQALKETHPHLIMELWEKCSKKGLLPLSS
notes: NLRP1, human, CARD D1374-S1473, isoform 1 (Q9C000-1); G1463C (helix alpha6) was added for cysteine labelling in the constructs for in vitro analyses; The cleavage of the tag is described for the CARD8^CARD filament assay; also called CARD alone; WT CARD; source: E. coli BL21 (DE3), purified as monomeric MBP-CARD (amylose resin, Superdex 200), filaments formed in vitro
B5: ASC^CARD (106-195, W169G) - 5 x GSS linker - caspase-1^CARD (1-95, G20K) fusion protein (other)
chain: SAAKPGLHFIDQHRAALIARVTNVEWLLDALYGKVLTDEQYQAVRAEPTNPSKMRKLFSFTPAGNWTCKDLLLQALRESQSYLVEDLERSGSSGSSGSSGSSGSSMADKVLKEKRKLFIRSMGEKTINGLLDELLQTRVLNKEEMEKVKRENATVMDKTRALIDSVIPKGAQACQICITYICEEDSYLAGTLGLSADQTS
notes: ASC, CARD, residues 106-195; 5 x GSS linker, written out from '5XGSS'; caspase-1, CARD, residues 1-95; Tetramer of the fusion = octamer of CARDs; also called ASC^CARD-caspase-1^CARD fusion protein; ASC^CARD-CASP1^CARD; source: E. coli BL21 (DE3), purified (Ni-NTA, TEV cleavage, amylose flow-through, Superdex 200); not shown: His6, N-terminal, cleaved; MBP, N-terminal, cleaved
B6: caspase-1^CARD (1-95) G20K (domain or fragment, UniProt P29466 1-95, looked up)
chain: MADKVLKEKRKLFIRSMGEKTINGLLDELLQTRVLNKEEMEKVKRENATVMDKTRALIDSVIPKGAQACQICITYICEEDSYLAGTLGLSADQTS
notes: caspase-1, CARD, residues 1-95; Stood in the experiment on one chain with ASC^CARD W169G through a 5 x GSS linker (fusion m9); also called CASP1^CARD; type IIb G20K mutant of caspase-1^CARD; source: E. coli BL21 (DE3), purified (Ni-NTA, TEV cleavage, amylose flow-through, Superdex 200), as part of the fusion m9
B7: NLRP1-CT (UPA-CARD fragment of NLRP1, S1213-S1473) (domain or fragment, human, UniProt Q9C000-1 1213-1473, looked up)
chain: SPLGVLLKMIHNALRFIPVTSVVLLYHRVHPEEVTFHLYLIPSDCSIRKAIDDLEMKFQFVRIHKPPPLTPLYMGCRYTVSGSGSGMLEILPKELELCYRSPGEDQLFSEFYVGHLGSGIRLQVKDKKDETLVWEALVKPGDLMPATTLIPPARIAVPSPLDAPQLLHFVDQYREQLIARVTSVEVVLDKLHGQVLSQEQYERVLAENTRPSQMRKLFSLSQSWDRKCKDGLYQALKETHPHLIMELWEKGSKKGLLPLSS
notes: NLRP1, human, UPA-CARD fragment S1213-S1473, isoform 1 (Q9C000-1); Forms thick helical filaments of CARD dimers; the purified filaments still held some uncleaved His-MBP-tagged subunits; Only the CARD is resolved in the map; also called NLRP1^UPA-CARD; source: E. coli BL21 (DE3), purified (amylose resin, Superose 6, MBP-3C protease cleavage, Superose 6 void fraction); not shown: His, …
B8: His-MBP-3C-UPA-CARD of NLRP1 (uncleaved MBP fusion of NLRP1-CT) (domain or fragment, human, UniProt Q9C000-1 1213-1473, looked up)
chain: B7 chain
notes: NLRP1, human, UPA-CARD fragment S1213-S1473, isoform 1 (Q9C000-1); HRV 3C protease linker between MBP and UPA-CARD; modified pDB-His-MBP vector; also called MBP-fusion protein; MBP-CT fusion protein; source: E. coli BL21 (DE3), purified (amylose resin, Superose 6); not shown: His, N-terminal, kept; MBP, N-terminal, kept

Key:
[1] = biological target: B6; assay: cryo-EM structure; purified ASC^CARD-caspase-1^CARD octamer (tetramer of the fusion protein); single-particle reconstruction; conditions: both partners purified
[2] = biological target: the molecule itself; assay: as above
[3] = biological target: the molecule itself; assay: cryo-EM structure; purified CARD8 CT filaments (Superose 6 void fraction), A280 = 0.75; 25 mM Tris-HCl pH 7.5, 150 mM NaCl, 1 mM TCEP; helical reconstruction
[4] = biological target: B2; assay: SEC; after partial 3C cleavage, filaments recovered from the Superose 6 void fraction; SDS-PAGE of the fraction shows uncleaved MBP-tagged protein; conditions: both partners purified
[5] = biological target: the molecule itself; assay: negative-stain EM of filaments formed in vitro; recombinant MBP-tagged protein cleaved with 3C protease, sample stained with 1% uranyl formate and imaged
[6] = biological target: the molecule itself; assay: SEC-MALS; Superdex 200 in 25 mM Tris-HCl pH 8.0, 150 mM NaCl, 2 mM DTT; three-angle light scattering and refractive index detectors
[7] = biological target: the molecule itself; assay: SEC; amylose eluate of His-MBP-NLRP1-CT on Superose 6 in 25 mM Tris-HCl pH 7.5, 150 mM NaCl, 1 mM TCEP; a range of small oligomers
[8] = biological target: B7; assay: SEC; after partial 3C cleavage, filaments recovered from the Superose 6 void fraction; SDS-PAGE of the fraction shows uncleaved MBP-tagged protein; conditions: both partners purified

Binder: B1
binding result [1]: binds
binding result [2]: binds

Binder: B2
binding result [3]: binds

Binder: B3
binding result [4]: binds

Binder: B4
binding result [5]: binds

Binder: B5
stoichiometry N [6]: 4

Binder: B6
binding result [2]: binds

Binder: B7
binding result [5]: binds

Binder: B8
binding result [7]: binds
binding result [8]: binds
